Source: the supplement of paper PMC12042874
± gives the uncertainty stated by the source.

assay: amyloid nucleation score (Sup35N fusion, yeast selection) (log enrichment); library NNK2; higher = more nucleation; inactive = no reads after selection
Method in brief: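 DiMSum was used to calculate nucleation scores as log enrichment of output over input reads, centred on the mode score of non-aggregating sequences. Sequences with fewer than 100 input reads were not scored. Input and output came from Illumina sequencing of plasmid inserts in psi-negative yeast expressing peptides of 20 random codons fused to Sup35N, induced 24 hours with 100 μM copper sulfate and then grown 7 days at 30°C on medium lacking adenine and uracil.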

Substance | amyloid nucleation score
LVSFGPLMDQGSCIALHSRR | 0.162 ± 0.31
LVSFRKPILTSQ | 0.164 ± 0.8
LVSVVNMVADSSRKSSQGEL | 4.875 ± 0.039
LVSYSDVGWPLYWFCSVRVP | 1.24 ± 0.2
LVTARQLARI | 0.121 ± 0.24
LVVVRMGGIGLESFVAHGEV | 0.524 ± 0.35
LVVWPMNQPLPLSNRPTPKR | 1.83 ± 0.3
LVWIEMVSF | -0.544 ± 0.78
LVYVWKDLAYMVLLHFRLFL | -1.16 ± 1.1
LWFGRSCGFGIGVYYRRPSL | -0.213 ± 0.48
LWFGTIHNNTVGSNIDFTFT | 4.71 ± 0.092
LWGFMCFFW | -1.41 ± 0.29
LWIIPQELGLCLMCGVVCCV | -1.41 ± 0.75
LWLLMYGSW | 2.4 ± 0.1
LWLVYSESWSMYAMS | 1.19 ± 0.12
LWMCKTFYGAGLSPVVK | -0.038 ± 1
LWMVFSGNALEKYSSDFCHC | -1.22 ± 0.78
LWVSSSLSL | -0.74 ± 0.45
LWYGWCKRLYFVRCHYRVSM | -0.543 ± 0.55
LYAVRPLTVGTKCYMMRGLL | -1.59 ± 0.49
LYCQFSYVRCKPGKRSDLGW | 1.88 ± 0.23
LYDFCVSYVSQNGLRLFVRT | -0.727 ± 0.45
LYDIDWRFRHKDAHQCKVDR | -0.184 ± 1.1
LYGGCRKWFTRTCFSFHMYR | 0.562 ± 0.81
LYHETAENSSRTQTTRRWSF | -0.321 ± 1

Substance | amyloid nucleation score
LYIET | -1.28 ± 0.63
LYIIMMICIQSLFRYRGIKG | -0.975 ± 0.78
LYLMSHTGFLSNTHIRLAPR | -0.291 ± 1.1
LYLTRMFTTNAL | 0.806 ± 0.58
LYLYPAMFVSWLSGLPTRFC | -0.406 ± 1.1
LYMILNGYTLGSCFTVRDSF | 4.99 ± 0.078
LYNEMVRSLVGAICRSRQGY | -0.297 ± 1.1
LYPWRMTCYK | -1.34 ± 0.76
LYQSYHELSFVTVHRSSKVD | 2.45 ± 0.15
LYRLSFSLFWERNRVHSFIR | -0.232 ± 1.1
LYRRFRQRCIRERERLVHGL | 0.01 ± 0.38
LYRVILLSSRHNGSNIWAEF | 0.127 ± 0.74
LYRYSSG | inactive
LYSWAFSS | inactive
LYVFPCHILDDRCFLCGGWF | -0.353 ± 0.38
MAAVSETHPGAEGSNRVVSE | 3.06 ± 0.07
MAVLEMRDRWCDLLLTTSRV | 0.155 ± 0.21
MCFAHVRNFSEW | 1.47 ± 0.15
MCFFMAREEASRGAKGLAER | 1.66 ± 0.19
MCGSDNYILGLFWVYFMTNF | inactive
MCRYCLVWYGFLNYSTLTRG | -1.37 ± 0.62
MCVGNYVLRFLALPPSGCNM | -0.806 ± 0.36
MCWIVTFTRLCWLMFNSERC | inactive
MDFSSLWGLHFVLCCVSWGR | 0.256 ± 1
METAPTLNINVSDSQRPNVW | 0.71 ± 0.53

Substance | amyloid nucleation score
MEVADC | 0.591 ± 0.35
MFIGLLVLRLLFAYQNDKSY | 0.153 ± 0.79
MFSNFLIRKEGRKKVAMVKK | -1.04 ± 0.33
MFSSMSVLCKYILASWASHK | -0.58 ± 0.63
MFTKDISGFLGVLGHVVVLG | -0.237 ± 0.63
MFVRRKSVSMVEYWE | 0.054 ± 0.32
MFYPRSSFSWDFPTFGLSLP | inactive
MGGNLCVPRTLYSAIWLLSR | -1.23 ± 0.44
MGLSAVQVFSRRCSFSGKWC | inactive
MGQLDGKACSICRSLVIIVY | 2.23 ± 0.073
MGTPLNFGCQY | -1.26 ± 0.48
MGYRFSGDLMEGRSTEWWRA | 0.836 ± 0.47
MHEAH | 0.439 ± 0.46
MHMYMRSGFLLLFVSWVREC | -0.958 ± 0.76
MHPVANSGNSEHMFSMLY | 3.48 ± 0.09
MHSLISELLLPNTIFGSAGI | -0.707 ± 0.76
MIFCCTRK | 8.708 ± 0.078
MIISTVMSGMNANSLVVWAY | 0.375 ± 0.21
MIKHGYQWPCSLCT | 0.219 ± 0.46
MIMEQSNNISNCLFVMQGPK | 7.143 ± 0.07
MIMLDAEGLYIIPRGVSKFL | 1.87 ± 0.11
MINLQYLVGNLAVGL | 1.37 ± 0.14
MIRTHLRRIYNS | -1.26 ± 0.37
MIVNYFWIRCAPLFWQAIPS | 3.63 ± 0.15
MIWNCTVFFLGDGAPLCGLC | 8.5 ± 0.064

Substance | amyloid nucleation score
MKGEMF | -0.345 ± 0.28
MKNTVE | -0.803 ± 1
MKPAWYIVNEWLSGTRLECM | -0.035 ± 0.49
MKVPVRIRWVPLFSDFTYQV | -0.736 ± 0.36
MKYLIVCDFCGLYSPCGFCF | 7.808 ± 0.037
MLCCLCMMVCDR | 8.673 ± 0.032
MLCRNIHRCKMHREPLGVFH | 0.578 ± 0.81
MLDYFGLWSWARSSNYLEFK | -1.09 ± 0.31
MLLSCYFVVNE | 6.37 ± 0.072
MLMRNFSNSNLLAENFMQMR | 0.138 ± 1.1
MLQYWMPVLGWWAFMRNLAF | 1.71 ± 0.47
MLRLFQYFLGTNFWGHQGFS | -0.724 ± 1.1
MLSENADTRCLRMFVSDCQR | 1.26 ± 0.16
MLSLVMRVGFNCFIT | 0.208 ± 1.1
MLVEMYLFVNLCLYMRMSFR | 0.018 ± 0.5
MLVWTNMFSTLYDISWKAPL | -1.02 ± 0.62
MLWQFKWESGYVTLRARPN | inactive
MLYSSR | -1.44 ± 0.44
MMFTSQTGDLLFF | 4.89 ± 0.051
MMNTKFINWDKMLDIGYRAD | 0.877 ± 0.8
MMVGFLCK | 3.91 ± 0.07
MMVYKGMPVLPCEYRVLY | -0.199 ± 0.36
MNDLMYVVLSRCSMIGNCGS | 1.29 ± 0.17
MNLWVMAFR | 6.502 ± 0.065
MNMSEMSAYHFLFSGGSKLR | -0.21 ± 0.44

Substance | amyloid nucleation score
MNPYLVGPFERVV | 0.061 ± 0.33
MPGYYPMGSL | 0.427 ± 0.74
MPQWKL | -0.205 ± 0.74
MPYTCMGVFVAHMEATE | 0.316 ± 0.4
MQRTIYFS | 0.767 ± 0.58
MRFSCWADIVRGDLIPHFVV | 2.84 ± 0.09
MRHMYRPPIVSLHRVAIGFM | -0.906 ± 0.63
MRRRMQSWANRSLSTGWGMF | -0.091 ± 0.38
MRRSLFMCILVYDSWLYFSV | 3.15 ± 0.17
MRSFGPIFSVLL | -0.067 ± 0.34
MRSRNLLS | inactive
MRSTALYDILRRPWFNFSAY | -0.014 ± 0.76
MRWSYFDH | 0.921 ± 0.47
MSFKDNYQPK | -0.707 ± 0.76
MSILESIRTRTRRVKGYLSC | 0.315 ± 0.36
MSILTCVPGTNIINSQW | inactive
MSLILRSPLKTWLPLAHTQG | 0.187 ± 0.42
MSLLV | 5.695 ± 0.029
MSLWRVCCFSWPKKVYSNFR | 1.2 ± 0.1
MSPWRDRSRFKIYDGPTWRM | 0.728 ± 0.8
MSPYL | 0.479 ± 0.8
MSSINTRPRNDA | -0.645 ± 0.37
MSSQKWADKVPWEFVCGCFD | 0.01 ± 0.65
MSVLSMVFSGFDPMERFGEL | 0.294 ± 0.8
MSYGNAYNTPKCDKHSVIPY | 0.738 ± 0.37

Substance | amyloid nucleation score
MTCSSHCGMCIPSIPQVFGA | 1.02 ± 0.4
MTDLLTMVAYRLKGSRVSSM | 0.08 ± 0.37
MTFENFSSSHSWTDLLFLFI | 3.43 ± 0.078
MTGNVYKMIILIYNFFRRS | 2.7 ± 0.069
MTQPEGY | 0.325 ± 0.56
MTRVTYMYVFIYACESRYTH | -0.116 ± 0.22
MTSRVETSKCNCSLQVWRPL | 0.579 ± 0.37
MVFAPIVYEIKRDIKMLFGA | 5.947 ± 0.029
MVFRNNYSEVTTRLAGNGRR | -0.074 ± 1.1
MVINSAWVCENGLSQYFLAK | 4.27 ± 0.075
MVINSFPPGWVRGHMIKSTG | -0.39 ± 0.76
MVIQHIDRPDYWISWGHNKG | 5.112 ± 0.048
MVKLFSLSTS | -0.533 ± 0.2
MVLIYRLCQSLRLRHGVGVK | 4.33 ± 0.1
MVLLCIFQ | 8.273 ± 0.064
MVLLLQASSI | -0.354 ± 0.54
MVPKNFYFRRWLSWLRVRLL | 0.144 ± 0.52
MVVGIAVYRCSFNRTDLFPS | 0.655 ± 0.2
MVVLCHINLYEYGSFNPSST | 6.31 ± 0.077
MVWAQSTASMVLDLVFIAPS | 1.75 ± 0.29
MVYPRYVSDTKQSRLLAGRE | 0.604 ± 0.57
MWVPFASWLCK | -0.08 ± 0.5
MYLVYHYLSVRAFLFMSTMV | -0.39 ± 0.61
MYRRSSWHLWWSKELFDAIY | -0.723 ± 0.79
MYSVMLRTSYCTLARYMVLW | 1.08 ± 0.11

Substance | amyloid nucleation score
NACYIDFGRTAVSTVLAILY | 3.41 ± 0.09
NADQLLIGELQLTLGLWPIR | 1.14 ± 0.16
NAQSRVLAEETGLSNPPIML | -1.45 ± 0.62
NARVTGVF | inactive
NCFRVFNSFSIFGAFRTMDR | 5.22 ± 0.064
NCFSSRGGARTFGIKLIFSV | 0.524 ± 0.51
NCFYALYPSQDWRMTKLELS | -0.106 ± 0.23
NCGLWNISMCPGDNLSSWDG | 7.46 ± 0.039
NCKMVMIGCDRNYL | -1.37 ± 1.1
NCVNPDYGLLQQLSRYLVVC | -0.764 ± 0.64
NCYSRALYSPCSPFLLTN | -1.73 ± 0.41
NDCGSNDRLSNTFFWFLLFG | 0.142 ± 0.65
NDDTDQLSTSSIGRRMRMR | 0.662 ± 0.81
NDIMYSVSSYCWWSFRSSVF | 2.06 ± 0.15
NDMFLSYLHSPWYNVLCDFI | -1.29 ± 0.49
NDMVRAISRKGIVSIHRRTR | 0.724 ± 0.45
NDTSYGAQRRVCSTFQGCVT | 0.211 ± 0.32
NDVGSLWVIADVGIFYVQDK | -0.662 ± 0.61
NDWFCVVY | -1.48 ± 0.42
NEFRDIYGFSVSKLPTGGIC | -1.17 ± 0.41
NEYMYVR | 0.969 ± 0.52
